Experimental data published in the DeepSol protein solubility set.

assay: soluble on expression in E. coli; label from the status in PepcDB or PDB records

Row | Sequence | soluble on expression in E. coli
1 | MSLTEMLSTEDFDFDLPEELIAQTPLKDRASSRLLVVNKETGDMEDKHFHDILDELQPGDALVMNNTRVLPARLYGEKPETGGHLEVLLLTNTEGDTWETLIKPAKRAKVGTEIQFGDGRLKAVVKEELEHGGRIIEFKYDGIFLEILESLGEMPLPPYIKERLDDPDRYQTVYAEENGSAAAPTAGLHFTKELLEEIKAKGVHLVYLTLHVGLGTFRPVSVDNIEEHHMHSEFYRLTEEAAKQLNEVRQAGGRIVAVGTTSIRTLETIGTKFNGEIQADSGWTDIFITPGYQFKVVEAFSTNFHLPKSTLVMLVSAFAGKDLTLAAYQHAIEEKYRFFSFGDAMFIKEGGSHHHHHH | soluble
2 | MSLTENKGTPEVGWSFDTRYTDLPSMMFSNVEPEPVEAPKLVILNDSLAQSLGLDPVALQHQNSIAVLAGNEVPKGAAPLAQAYAGHQFGHFTMLGDGRAILLGEQITPNGERFDIQLKGSGRTPYSRQGDGRAALGPMLREYIISEAMHALGIPTTRSLAVVTTGESVFRETVLPGAILTRVAASHIRVGTFQFVANAGSEEELKALADYTLARHFPEVEADRENRYLALLQKVIKRQAELIAKWQLVGFIHGVMNTDNMTISGETIDYGPCAFMDVYDPETVFSSIDTRGRYAYGNQPRIGAWNLARFAEALLPLLADDQDEAIKLAEAEISNYAEQFEHHWLNGMRAKLGLFNEESEDLSLIKDLLEVMHKHKADFTNTFRALTFDEQEETGLHDKLEFTEWHERWQARLGRQEQTKDDSHNLMKMSNPAVIPRNHRVEEALEAAVEQEDYQVMERLLKVLANPFAHSPEQKAYAKLPAPCAIPYRTYCGTEGHHHHHH | not soluble
3 | MSLTKAQDHDAAVLYGYFRSSASYRVRIALNLKNIIVAQRYVHLRNGEQNLEAFRWINPAGMVPYWSEGEFNLGQSLAIIEYLDETHPEPPLLPKDPKARAIVREIAYAVACDIHPIGNLRILKRLTELGVDEVDRARWSKEWVEQGFAAIEARLAQTPGPFAYGDRPTLADICIVPQIFNARRFDADLAPFERIRQIEAEAMKLDAFVAAEPGRQPDAEGHHHHHH | soluble
4 | MSLTKIKNIKTKVYQWNGKTVPPKNNFCTNASDILYEKSDAMGSFRFHEWLICEIETDDGVFGIGNAALAPQIVKKTIDTYLKPLVVGEDPFDYAYIWEKMYRRTHAWGRRGIGMIAMSAIDIGIWDILGKITNKPVFKLLGGRTKEKIPVYASKLYSQPLNELQKEAETYKNQGFKMYKMSFGWGPKDGPEGMKKNIDLVEAVREVIGDDSDLMLESYMGWNLDYSKRIIPKLIKFNPRWLEEPVIADDIAGYSELNKMGVIPISGGEHEFNLFGFKQLLDLKAVSYIQYDTNRVGGITAAQKINALAESFQVPVVPHAGQMHNYHLTMANFNCPISEYFPVHDVEVGNELFYYIFEGDPEPKNGNINLDDNIPGLGLKISDKYKSDFNIIDEGHHHHHH | soluble
5 | MSLTNHHPSSTGPQHPYRAGWIHFTNVAPILDSLELPPGVTAITGVPTQMNAALLSGEVDIANVSAVEFIRHADTLAALPDFSVAVLGPVYSVNLFHTCPLPELRRVALTSQSAMSVALLEVLLRQKGLSPVLERAEGTAESLLAAGYDGVLRIGDDALREWYGVVGPLTPERTMTSLPHTGRGITVTDLAQEWFDLTGHPFTFAVWAYRKDNPPPAALLQAMREARRRGIGHLAEVSQRHAEKLGLPERVVQHYLWNFRYHLEAPDRLGLREFADLAVPGHAELTFGAREEAEGHHHHHH | soluble
6 | MSLTNNNHRLISNSFSTYSIDTSRAYENYLTHWTEWKNNRIQEEQRDIAFQRLVSCLQNQETNLDLSELGLTTLPEIPPGIKSINISKNNLSLIPPLPASLTQLNVSYNRLIELPALPQGLKLLNASHNQLITLPTLPISLKELHVSNNQLCSLPVLPELLETLDVSCNGLAVLPPLPFSLQEISAIGNLLSELPPLPHNIHSIWAIDNMLTDIPYLPENLRNGYFDINQISHIPESILNLRNECSIDISDNPLSSHALQSLQRLTSSPDYHGPQIYFSMSDGQQNTLHRPLADAVTAWFPENKQSDVSQIWHAFEHEEHANTFSAFLDRLSDTVSARNTSGFREQVAAWLEKLSASAELRQQSFAVAADATESCEDRVALTWNNLRKTLLVHQASEGLFDNDTGALLSLGREMFRLEILEDIARDKVRTLHFVDEIEVYLAFQTMLAEKLQLSTAVKEMRFYGVSGVTANDLRTAEAMVRSREENEFTDWFSLWGPWHAVLKRTEADRWALAEEQKYEMLENEYPQRVADRLKASGLSGDADAEREAGAQVMRETEQQIYRQLTDEVLALRLPENGSQLHHSEGHHHHHH | soluble
7 | MSLTNRSGKDFADEKLLTVLAEVERDLEITYDDLQKQAIIGAMNQQFFILTGGPGTGKTTIINGFIETYARLHQLDLDPDHYNDDVFPILLAAPTGRASRRMNELTGLPAATIHRHLGLGQDEAEDALGNELSGALLIVDEFSMVDTWLANKLFQAIPGSMKVLLVGDADQLPSVGPGQIFADLLKIPEIPSVKLDKIFRQGDDSTITDLAHHIKDGQLPSDFTAKKPDRSYFEVSANFVPQMVEQIASAWQKRGNNPFELQILAPMYKGMAGINAMNVLLQNLFNPLNDRLEFALGDMKFREGDKVLHLVNDAEANVFNGDLGQIVELIAAKYTDSKQDELVMDFDGQELTYPRAEWYKITLAYAMSIHKSQGSEFSTVIVPMVSSYSRMLERNLLYTAITRAKQSLILLGEERAFAQAVAREGANRKTYLIERFMGENEGHHHHHH | not soluble
8 | MSLTPDLLNFKKGWMSILDEPGEPPSPSLTTTSTSQWKKHWFVLTDSSLKYYRDSTAEEADELDGEIDLRSCTDVTEYAVQRNYGFQIHTKDAVYTLSAMTSGIRRNWIEALRKTVRPTSAPDVTEGHHHHHH | soluble
9 | MSLTPVLDKIDSDVSAATDRLLELLRIPSISTDPAYKADCDAAADWLVKDLNSIGIKAEKRETPGHPMVVGHVGEENTKGPHLLFYGHYDVQPVDPLNLWNTPPFEPQLEETPNGTVIRGRGASDDKGQLMTFVEACRAWQAVHGTLPCRITFFFEGEEESGSPSLIPFLEAAKEELSADIALICDTSMVARGVPSVASQLRGMMKDEFTLIGPKIDLHSGHYGGPGLNPLREISHIIASFHDPDTGAVAVEGFYEGVPEVPADILRQWEGCGFDEKDYLSNAGYTEAHGEKKYSTLEQQWARPTLEINGLWGGYQGAGTKTVIPSEAHCKITCRLVGDMDPADLRQKIRKHVEDRLPTDCTVKWDLDLDGAPAYVIDTTRPEFEAARGALTEEWNREAVFSGMGGSIPVAGYFKSILGMDAMLIGFANEDDAIHSPNEKYDLESFHKGIRSWARVLDALSKA | soluble
10 | MSLTRIQLVISDVDGTLVTTDKRLTDRARDAVSRLEASGVGFTLTSSRPPVGMRMYSDPLGITLPLGPFNGSSIVTPTLDVLEQHLIPDSAATISIELFERSGIDIWLFTNDNWYIRRDDGKYVVHEERTIRFSPTMAEDLTPFAGKACKIVGVSADFALLKRCEPELQAALGDRALAVRSQDYYLDVTPPGRSKGTFVATMAERLGIAADAIATIGDMQNDLPMFGVSGLPIAMGNAADDIKQQAAHVTGRNDDDGFAAAIDFILEHNARVGEGHHHHHH | soluble
11 | MSLTSEEERAEQAMAAISQIEPTRRLFVWTLTHGIVEYGSARAPAQHNTVSPQAAIEWVVRRGEPGIFIFKDLHPFIDLAPVKRWLRDAVAGFKGTDKVLVLMSPIQQIPTELEKEVVVVEFPLPGPGELNELLNVHLSQAPDKLRILSDAGREKMVKAALGLTKDEADKVYRKAEVVSGRLTEAEVDIVLSEKKQIIKRNGILEYLEFDDEGHHHHHH | not soluble
12 | MSLTSLVSAVGSHHVTTDPDVLAGRSVDHTGRYRGRASALVRPGSAEEVAEVLRVCRDAGAYVTVQGGRTSLVAGTVPEHDDVLLSTERLCVVSDVDTVERRIEIGAGVTLAAVQHAASTAGLVFGVDLSARDTATVGGMASTNAGGLRTVRYGNMGEQVVGLDVALPDGTVLRRHSRVRRDNTGYDLPALFVGAEGTLGVITALDLRLHPTPSHRVTAVCGFAELAALVDAGRMFRDVEGIAALELIDGRAAALTREHLGVRPPVEADWLLLVELAADHDQTDRLADLLGGARMCGEPAVGVDAAAQQRLWRTRESLAEVLGVYGPPLKFDVSLPLSAISGFARDAVALVHRHVPDSPEALPLLFGHIGEGNLHLNVLRCPPDREPALYAKMMGLIAECGGNVSSEHGVGSRKRAYLGMSRQANDVAAMRRVKAALDPTGYLNAAVLFDEGHHHHHH | not soluble
13 | MSLTSLYTGTFVDTPTPAGLRVRRNHLLAVSAQGAIAHIAPVSDPASQALLASAPPPTALGRHSFFLPTYADLHLHAAQYLYAGTGLDLPLLEWLERYAYRAEERVDADEQLAERLYGRLVQRLRENGTGCVVFFGTIGVQANLILARKAQEAGIRAFIGKLSMDESPRPSYGEASPAASLSSLNSFLDSMESYLSQFPSHRRLVQPIITPRFVPVCSDELLQGLAKVAQDRNVRLQSHMCEGRDQIDMSLKTKGLDDEKVFDKFGLLGPQTLQAHVTYLDDKLIPLIKERGVTIAHCPLSNQYLSERQFPLREALDASLSLGLGTDIAGGYSPSIHTAMRQAVIISRMREGDRCESLGCSFGTVKKEEEGGGRNLRVDWKEAVWAATRGGKAGMGLGGALEVGMEFDVQLIELASEENPTGTGPLDLFDLADSQVDTDTDEWWFDALERWWSNGDERNRKGMWVQGAKIAEGHHHHHH | soluble
14 | MSLTSQVSSTTEQADEPVVGEQRKPAGAKDVRRLDRVIIRFAGDSGDGMQLTGDRFTSETASFGNDLSTLPNFPAEIRAPAGTLPGVSSFQLHFADHDILTPGDAPNVLVAMNPAALKANVSDLPRGAEVIVNTDEFTKRAMQKVGYGTSPLEDGSLDGYSVHPVPLTTLTVEALKEFELSRKEAERSKNMFALGLLSWMYHRPTEGTEKFLTTKFAKKPAIAAANIAAFRAGWNFGETTEDFAVSYEVAPAQSAFPAGTYRNISGNLALSYGLIAASRQADLPLYLGSYPITPASDILHELSKHKNFGVRTFQAEDEIAGIGAALGAAFGGSLAVTTTSGPGVALKSETIGLAVSLELPLLVVDIQRGGPSTGLPTKTEQADLLQAMYGRNGEAPVPVVAPRTPADCFEAAIEAARIALTYRTPVFLLSDGYLANGSEPWRIPETDGLPDLRVRFAQGPNHTLDDGTEVFWPYKRDPGTLARPWAIPGTPGLEHRIGGIEKQDGTGNISYDPANHDFMVRTRQAKIDGIDVPDIEVDDPDGASALVLGWGSTYGPITAAVRRLRTAGESIAQAHLRHLNPFPSNLGAVLKGYDKVVIPEMNLGQLATLIRAKYLVDAHSYNQVNGMPFKAEQLATALKEAIDEGHHHHHH | not soluble
15 | MSLTSTIIDVRAKLYTWKGDVQKIHENFCTNAADLVNQDNISNDRWATYKFLSWLVVEVETSDGHIGIGNAALSPKPCKSVVDNYLKPAIIGESIWDYEHIWQKMYRQTLAWGRKGIGMTAISAVDIAIWDALGKTVKQPVFKLLGGKTKSKLPCYASKLYSQPLDSLAKEAKDYLDQGFKAMKLRLGWGPNDGAEGMRKNIELIRTVRSVVGEDVDLMADVYMGWTFEYAKRMMRLIDNENLRWLEEPVIADDIDGYADLKASCQTPISGGEHEYTLFGFRQLLEKKAVDVVQFDTNRVGGITQAHKICALAEAFQIPVIPHAGQVHNFHISMSSINAPIVEYFPFWPVEIGNELFWYIFDGEPQAKDGYIELDDTKPGLGIELSEKYLKDFVIEVEGHHHHHH | soluble
16 | MSLTTKDHSLATESPTLQQLGEFAVIDRLVRGRRQPATVLLGPGDDAALVSAGDGRTVVSTDMLVQDSHFRLDWSTPQDVGRKAIAQNAADIEAMGARATAFVVGFGAPAETPAAQASALVDGMWEEAGRIGAGIVGGDLVSCRQWVVSVTAIGDLDGRAPVLRSGAKAGSVLAVVGELGRSAAGYALWCNGIEDFAELRRRHLVPQPPYGHGAAAAAVGAQAMIDVSDGLLADLRHIAEASGVRIDLSAAALAADRDALTAAATALGTDPWPWVLSGGEDHALVACFVGPVPAGWRTIGRVLDGPARVLVDGEEWTGYAGWQSFGEPDNQGSLGEGHHHHHH | soluble
